Sequences and labels used below:
B1: equine IgG1 T286H (antibody, part only; not given: variable domains, not shown: another chain or arm of the molecule)
constant: ASTTAPKVFALAPGCGTTSDSTVALGCLVSGYFPEPVKVSWNSGSLTSGVHTFPSVLQSSGFYSLSSMVTVPASTWTSETYICNVVHAASNFKVDKRIEPIPDNHQKVCDMSKCPKCPAPELLGGPSVFIFPPNPKDTLMITRTPEVTCVVVDVSQENPDVKFNWYMDGVEVRHATTRPKEEQFNSTYRVVSVLRIQHQDWLSGKEFKCKVNNQALPQPIERTITKTKGRSQEPQVYVLAPHPDELSKSKVSVTCLVKDFYPPEINIEWQSNGQPELETKYSTTQAQQDSDGSYFLYSKLSVDRNRWQQGTTFTCGVMHEALHNHYTQKNVSKNPGK
B2: equine IgG4 K311D (antibody, part only; not given: variable domains, not shown: another chain or arm of the molecule; small tags and cut ends)
constant: ASTTAPKVFPLASHSAATSGSTVALGCLVSSYFPEPVTVSWNSGALTSGVHTFPSVLQSSGLYSLSSMVTVPASSLKSQTYICNVAHPASSTKVDKKIVIKECNGGCPAECLQVGPSVFIFPPKPKDVLMISRTPTVTCVVVDVGHDFPDVQFNWYVDGVETHTATTEPKQEQFNSTYRVVSVLPIQHDDWLSGKEFKCKVNNKALPAPVERTISKPTGQPREPQVYVLAPHRDELSKNKVSVTCLVKDFYPTDIDIEWKSNGQPEPETKYSTTPAQLDSDGSYFLYSKLTVETNRWQQGTTFTCAVMHEALHNHYTEKSVSKSPGK
B3: equine IgG4 K311I (antibody, part only; not given: variable domains, not shown: another chain or arm of the molecule; small tags and cut ends)
constant: ASTTAPKVFPLASHSAATSGSTVALGCLVSSYFPEPVTVSWNSGALTSGVHTFPSVLQSSGLYSLSSMVTVPASSLKSQTYICNVAHPASSTKVDKKIVIKECNGGCPAECLQVGPSVFIFPPKPKDVLMISRTPTVTCVVVDVGHDFPDVQFNWYVDGVETHTATTEPKQEQFNSTYRVVSVLPIQHIDWLSGKEFKCKVNNKALPAPVERTISKPTGQPREPQVYVLAPHRDELSKNKVSVTCLVKDFYPTDIDIEWKSNGQPEPETKYSTTPAQLDSDGSYFLYSKLTVETNRWQQGTTFTCAVMHEALHNHYTEKSVSKSPGK
B4: equine IgG4 K311Q (antibody, part only; not given: variable domains, not shown: another chain or arm of the molecule)
constant: ASTTAPKVFPLASHSAATSGSTVALGCLVSSYFPEPVTVSWNSGALTSGVHTFPSVLQSSGLYSLSSMVTVPASSLKSQTYICNVAHPASSTKVDKKIVIKECNGGCPAECLQVGPSVFIFPPKPKDVLMISRTPTVTCVVVDVGHDFPDVQFNWYVDGVETHTATTEPKQEQFNSTYRVVSVLPIQHQDWLSGKEFKCKVNNKALPAPVERTISKPTGQPREPQVYVLAPHRDELSKNKVSVTCLVKDFYPTDIDIEWKSNGQPEPETKYSTTPAQLDSDGSYFLYSKLTVETNRWQQGTTFTCAVMHEALHNHYTEKSVSKSPGK
B5: equine IgG4 K311S (antibody, part only; not given: variable domains, not shown: another chain or arm of the molecule)
constant: ASTTAPKVFPLASHSAATSGSTVALGCLVSSYFPEPVTVSWNSGALTSGVHTFPSVLQSSGLYSLSSMVTVPASSLKSQTYICNVAHPASSTKVDKKIVIKECNGGCPAECLQVGPSVFIFPPKPKDVLMISRTPTVTCVVVDVGHDFPDVQFNWYVDGVETHTATTEPKQEQFNSTYRVVSVLPIQHSDWLSGKEFKCKVNNKALPAPVERTISKPTGQPREPQVYVLAPHRDELSKNKVSVTCLVKDFYPTDIDIEWKSNGQPEPETKYSTTPAQLDSDGSYFLYSKLTVETNRWQQGTTFTCAVMHEALHNHYTEKSVSKSPGK
B6: equine IgG4 K311V (antibody, part only; not given: variable domains, not shown: another chain or arm of the molecule)
constant: ASTTAPKVFPLASHSAATSGSTVALGCLVSSYFPEPVTVSWNSGALTSGVHTFPSVLQSSGLYSLSSMVTVPASSLKSQTYICNVAHPASSTKVDKKIVIKECNGGCPAECLQVGPSVFIFPPKPKDVLMISRTPTVTCVVVDVGHDFPDVQFNWYVDGVETHTATTEPKQEQFNSTYRVVSVLPIQHVDWLSGKEFKCKVNNKALPAPVERTISKPTGQPREPQVYVLAPHRDELSKNKVSVTCLVKDFYPTDIDIEWKSNGQPEPETKYSTTPAQLDSDGSYFLYSKLTVETNRWQQGTTFTCAVMHEALHNHYTEKSVSKSPGK
B7: equine IgG4 K311G (antibody, part only; not given: variable domains, not shown: another chain or arm of the molecule; small tags and cut ends)
constant: ASTTAPKVFPLASHSAATSGSTVALGCLVSSYFPEPVTVSWNSGALTSGVHTFPSVLQSSGLYSLSSMVTVPASSLKSQTYICNVAHPASSTKVDKKIVIKECNGGCPAECLQVGPSVFIFPPKPKDVLMISRTPTVTCVVVDVGHDFPDVQFNWYVDGVETHTATTEPKQEQFNSTYRVVSVLPIQHGDWLSGKEFKCKVNNKALPAPVERTISKPTGQPREPQVYVLAPHRDELSKNKVSVTCLVKDFYPTDIDIEWKSNGQPEPETKYSTTPAQLDSDGSYFLYSKLTVETNRWQQGTTFTCAVMHEALHNHYTEKSVSKSPGK
B8: equine IgG4 K311P (antibody, part only; not given: Variable domains, not shown: another chain or arm of the molecule)
constant: ASTTAPKVFPLASHSAATSGSTVALGCLVSSYFPEPVTVSWNSGALTSGVHTFPSVLQSSGLYSLSSMVTVPASSLKSQTYICNVAHPASSTKVDKKIVIKECNGGCPAECLQVGPSVFIFPPKPKDVLMISRTPTVTCVVVDVGHDFPDVQFNWYVDGVETHTATTEPKQEQFNSTYRVVSVLPIQHPDWLSGKEFKCKVNNKALPAPVERTISKPTGQPREPQVYVLAPHRDELSKNKVSVTCLVKDFYPTDIDIEWKSNGQPEPETKYSTTPAQLDSDGSYFLYSKLTVETNRWQQGTTFTCAVMHEALHNHYTEKSVSKSPGK
B9: equine IgG4 K311T (antibody, part only; not given: variable domains, not shown: another chain or arm of the molecule)
constant: ASTTAPKVFPLASHSAATSGSTVALGCLVSSYFPEPVTVSWNSGALTSGVHTFPSVLQSSGLYSLSSMVTVPASSLKSQTYICNVAHPASSTKVDKKIVIKECNGGCPAECLQVGPSVFIFPPKPKDVLMISRTPTVTCVVVDVGHDFPDVQFNWYVDGVETHTATTEPKQEQFNSTYRVVSVLPIQHTDWLSGKEFKCKVNNKALPAPVERTISKPTGQPREPQVYVLAPHRDELSKNKVSVTCLVKDFYPTDIDIEWKSNGQPEPETKYSTTPAQLDSDGSYFLYSKLTVETNRWQQGTTFTCAVMHEALHNHYTEKSVSKSPGK
B10: equine IgG4 K311N (antibody, part only; not given: variable domains, not shown: another chain or arm of the molecule)
constant: ASTTAPKVFPLASHSAATSGSTVALGCLVSSYFPEPVTVSWNSGALTSGVHTFPSVLQSSGLYSLSSMVTVPASSLKSQTYICNVAHPASSTKVDKKIVIKECNGGCPAECLQVGPSVFIFPPKPKDVLMISRTPTVTCVVVDVGHDFPDVQFNWYVDGVETHTATTEPKQEQFNSTYRVVSVLPIQHNDWLSGKEFKCKVNNKALPAPVERTISKPTGQPREPQVYVLAPHRDELSKNKVSVTCLVKDFYPTDIDIEWKSNGQPEPETKYSTTPAQLDSDGSYFLYSKLTVETNRWQQGTTFTCAVMHEALHNHYTEKSVSKSPGK
B11: equine IgG4 K311E (antibody, part only; not given: variable domains, not shown: another chain or arm of the molecule; small tags and cut ends)
constant: ASTTAPKVFPLASHSAATSGSTVALGCLVSSYFPEPVTVSWNSGALTSGVHTFPSVLQSSGLYSLSSMVTVPASSLKSQTYICNVAHPASSTKVDKKIVIKECNGGCPAECLQVGPSVFIFPPKPKDVLMISRTPTVTCVVVDVGHDFPDVQFNWYVDGVETHTATTEPKQEQFNSTYRVVSVLPIQHEDWLSGKEFKCKVNNKALPAPVERTISKPTGQPREPQVYVLAPHRDELSKNKVSVTCLVKDFYPTDIDIEWKSNGQPEPETKYSTTPAQLDSDGSYFLYSKLTVETNRWQQGTTFTCAVMHEALHNHYTEKSVSKSPGK
B12: equine IgG4 K311F (antibody, part only; not given: variable domains, not shown: another chain or arm of the molecule; small tags and cut ends)
constant: ASTTAPKVFPLASHSAATSGSTVALGCLVSSYFPEPVTVSWNSGALTSGVHTFPSVLQSSGLYSLSSMVTVPASSLKSQTYICNVAHPASSTKVDKKIVIKECNGGCPAECLQVGPSVFIFPPKPKDVLMISRTPTVTCVVVDVGHDFPDVQFNWYVDGVETHTATTEPKQEQFNSTYRVVSVLPIQHFDWLSGKEFKCKVNNKALPAPVERTISKPTGQPREPQVYVLAPHRDELSKNKVSVTCLVKDFYPTDIDIEWKSNGQPEPETKYSTTPAQLDSDGSYFLYSKLTVETNRWQQGTTFTCAVMHEALHNHYTEKSVSKSPGK
B13: equine IgG4 K311M (antibody, part only; not given: variable domains, not shown: another chain or arm of the molecule)
constant: ASTTAPKVFPLASHSAATSGSTVALGCLVSSYFPEPVTVSWNSGALTSGVHTFPSVLQSSGLYSLSSMVTVPASSLKSQTYICNVAHPASSTKVDKKIVIKECNGGCPAECLQVGPSVFIFPPKPKDVLMISRTPTVTCVVVDVGHDFPDVQFNWYVDGVETHTATTEPKQEQFNSTYRVVSVLPIQHMDWLSGKEFKCKVNNKALPAPVERTISKPTGQPREPQVYVLAPHRDELSKNKVSVTCLVKDFYPTDIDIEWKSNGQPEPETKYSTTPAQLDSDGSYFLYSKLTVETNRWQQGTTFTCAVMHEALHNHYTEKSVSKSPGK
B14: equine IgG4 K311H (antibody, part only; not given: variable domains, not shown: another chain or arm of the molecule; small tags and cut ends)
constant: ASTTAPKVFPLASHSAATSGSTVALGCLVSSYFPEPVTVSWNSGALTSGVHTFPSVLQSSGLYSLSSMVTVPASSLKSQTYICNVAHPASSTKVDKKIVIKECNGGCPAECLQVGPSVFIFPPKPKDVLMISRTPTVTCVVVDVGHDFPDVQFNWYVDGVETHTATTEPKQEQFNSTYRVVSVLPIQHHDWLSGKEFKCKVNNKALPAPVERTISKPTGQPREPQVYVLAPHRDELSKNKVSVTCLVKDFYPTDIDIEWKSNGQPEPETKYSTTPAQLDSDGSYFLYSKLTVETNRWQQGTTFTCAVMHEALHNHYTEKSVSKSPGK
B15: equine IgG4 K311L (antibody, part only; not given: Variable domains, not shown: another chain or arm of the molecule)
constant: ASTTAPKVFPLASHSAATSGSTVALGCLVSSYFPEPVTVSWNSGALTSGVHTFPSVLQSSGLYSLSSMVTVPASSLKSQTYICNVAHPASSTKVDKKIVIKECNGGCPAECLQVGPSVFIFPPKPKDVLMISRTPTVTCVVVDVGHDFPDVQFNWYVDGVETHTATTEPKQEQFNSTYRVVSVLPIQHLDWLSGKEFKCKVNNKALPAPVERTISKPTGQPREPQVYVLAPHRDELSKNKVSVTCLVKDFYPTDIDIEWKSNGQPEPETKYSTTPAQLDSDGSYFLYSKLTVETNRWQQGTTFTCAVMHEALHNHYTEKSVSKSPGK
B16: equine IgG4 K311R (antibody, part only; not given: variable domains, not shown: another chain or arm of the molecule)
constant: ASTTAPKVFPLASHSAATSGSTVALGCLVSSYFPEPVTVSWNSGALTSGVHTFPSVLQSSGLYSLSSMVTVPASSLKSQTYICNVAHPASSTKVDKKIVIKECNGGCPAECLQVGPSVFIFPPKPKDVLMISRTPTVTCVVVDVGHDFPDVQFNWYVDGVETHTATTEPKQEQFNSTYRVVSVLPIQHRDWLSGKEFKCKVNNKALPAPVERTISKPTGQPREPQVYVLAPHRDELSKNKVSVTCLVKDFYPTDIDIEWKSNGQPEPETKYSTTPAQLDSDGSYFLYSKLTVETNRWQQGTTFTCAVMHEALHNHYTEKSVSKSPGK

This test has as its target equine FcRn (large alpha subunit p51) / equine beta-2-microglobulin complex, biotinylated (equine) (UniProt P30441). Kind of test: SPR (Biacore), pH 6. (In SPR one partner is held on a chip, and binding of the other changes the refractive index at the surface.)
UniProt P30441, sequence (P30441 21-118, one chain of several): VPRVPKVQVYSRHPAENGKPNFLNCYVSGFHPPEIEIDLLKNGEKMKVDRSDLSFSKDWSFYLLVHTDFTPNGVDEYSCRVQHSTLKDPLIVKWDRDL
As to B1, the Kd turned out to be 22.4 nM.

B2 registered a Kd of 64.3 nM.

For the molecule B3, the Kd is 30.6 nM.

As to B4, the Kd was 21.9 nM. With B5, the Kd turned out to be 12.4 nM. The value for B6 was 22.4 nM; that for B7 was 51.2 nM. B8 had a Kd of 2000 nM. For the molecule B9, the Kd was found to be 25.5 nM. The value for B10 was 41.1 nM; that for B11 was 75.2 nM; that for B12 was 41.8 nM.

Take B13: the Kd amounted to 16.4 nM. The value for B14 was 35.6 nM; that for B15 was 28 nM.

B16 displayed a Kd of 16.1 nM.

The Kd is the equilibrium constant for the complex coming apart. Low values mean higher affinity, high ones lower affinity.

The values above are taken from patent publication US20260070987A1.
